The labels stand for the following.
B1: mSP34 Fab-HF v2 (Fab, V domains shown)
VH: EVKLLESGGGLVQPKGSLKLSCAASGFTFNTYAMNWVRQAPGKGLEWVARIRSKYNNYATYYADSVKDRFTISRDDSQSILYLQMNNLKTEDTAMYYCVRHGNFGNSYVSWFAYWGQGTLVTVSA
VL: QAVVTQESALTTSPGETVTLTCRSSTGAVTTSNYANWVQEKPDHLFTGLIGGTNKRAPGVPARFSGSLIGDKAALTITGAQTEDEAIYFCALWYSNLWVFGGGTKLTVLG
B2: huSP34.3.8 Fab-HF (Fab, V domains shown)
VH: EVQLVESGGGLVQPGGSLRLSCAASGFTFNTYAMNWVRQAPGKGLEWVGRIRSKYNNYATYYADSVKGRFTISRDDSKNSLYLQMNSLRTEDTAVYYCVRHGNFGHSYVSWFAYWGQGTLVTVSS
VL: QAVVTQEPSLTVSPGGTVTLTCGSSTGAVTTGHYANWVQQKPGQAPRGLIGGTNKRAPGVPARFSGSLLGGKAALTISGAQPEDEAEYYCALWYSNRWVFGGGTKLTVL
notes: also called HC3+LC8
B3: huSP34.13.10 Fab-HF (Fab, V domains shown)
VH: EVQLVESGGGLVQPGGSLRLSCAASGFTFSTYAMNWVRQAPGKGLEWVGRIRSKYNNYATYYAASVKGRFTISRDDSKNTLYLQMNSLRTEDTAVYYCVRHGNFGHSYVSWFAYWGQGTLVTVSS
VL: QAVVTQPPSLTVSPGGTVTLTCGSSTGAVTTGHYANWVQQKPGQAPRGLIGGTNKRAPGVPARFSGSLSGGKAALTISGAQPEDEAEYYCALWYSNRWVFGGGTKLTVL
notes: also called HC13+LC10
B4: huSP34.13.9 Fab-HF (Fab, V domains shown)
VH: EVQLVESGGGLVQPGGSLRLSCAASGFTFSTYAMNWVRQAPGKGLEWVGRIRSKYNNYATYYAASVKGRFTISRDDSKNTLYLQMNSLRTEDTAVYYCVRHGNFGHSYVSWFAYWGQGTLVTVSS
VL: QAVVTQPPSLTVSPGGTVTLTCGSSTGAVTTGHYANWVQQKPGQAPRGLIGGTNKRAPGVPARFSGSLSGGKAALTISGAQPEDEAEYYCALWYSNLWVFGGGTKLTVL
notes: also called HC13+LC9
B5: huSP34.3.10 Fab-HF (Fab, V domains shown)
VH: EVQLVESGGGLVQPGGSLRLSCAASGFTFNTYAMNWVRQAPGKGLEWVGRIRSKYNNYATYYADSVKGRFTISRDDSKNSLYLQMNSLRTEDTAVYYCVRHGNFGHSYVSWFAYWGQGTLVTVSS
VL: QAVVTQPPSLTVSPGGTVTLTCGSSTGAVTTGHYANWVQQKPGQAPRGLIGGTNKRAPGVPARFSGSLSGGKAALTISGAQPEDEAEYYCALWYSNRWVFGGGTKLTVL
notes: also called HC3+LC10
B6: huSP34.6.2 Fab-HF (Fab, V domains shown)
VH: EVQLVESGGGLVQPGGSLRLSCAASGFTFSTYAMNWVRQAPGKGLEWVGRIRSKYNNYATYYADSVKGRFTISRDNSKNTLYLQMNSLRAEDTAMYYCVRHGNFGNSYVSWFAVWGQGTLVTVSS
VL: QAVVTQEPSLTVSPGGTVTLTCGSSTGAVTTSNYANWVQQKPGQAPRGLIGGTSNRAPWTPARFSGSLLGGKAALTLSGAQPEDEAEYYCALWYSNLWVFGGGTKLTVL
B7: huSP34.8.5 Fab-HF (Fab, V domains shown)
VH: EVQLVESGGGLVQPGGSLRLSCAASGFTFSDYAMNWVRQAPGKGLEWVGRTRSKYNNYATYYAASVKGRFTISRDDSKNSLYLQMNSLKTEDTAVYYCVRHGNFGHSYVSWFAVWGQGTLVTVSS
VL: QAVVTQEPSLTVSPGGTVTLTCGSSTGAVTTGHYANWVQQKPGQAPRGLIGGTSNRAPWTPARFSGSLLGGKAALTLSGAQPEDEAEYYCALWYSARWVFGGGTKLTVL
B8: huSP34.8.2 Fab-HF (Fab, V domains shown)
VH: EVQLVESGGGLVQPGGSLRLSCAASGFTFSDYAMNWVRQAPGKGLEWVGRTRSKYNNYATYYAASVKGRFTISRDDSKNSLYLQMNSLKTEDTAVYYCVRHGNFGHSYVSWFAVWGQGTLVTVSS
VL: QAVVTQEPSLTVSPGGTVTLTCGSSTGAVTTSNYANWVQQKPGQAPRGLIGGTSNRAPWTPARFSGSLLGGKAALTLSGAQPEDEAEYYCALWYSNLWVFGGGTKLTVL
B9: huSP34.9.5 Fab-HF (Fab, V domains shown)
VH: EVQLVESGGGLVQPGGSLRLSCAASGFTFSDYAMNWVRQAPGKGLEWVGRTRSKYNSYATYYAASVKGRFTISRDDSKNSLYLQMNSLKTEDTAVYYCVRHGNFGNSYVSWFAVWGQGTLVTVSS
VL: QAVVTQEPSLTVSPGGTVTLTCGSSTGAVTTGHYANWVQQKPGQAPRGLIGGTSNRAPWTPARFSGSLLGGKAALTLSGAQPEDEAEYYCALWYSARWVFGGGTKLTVL
B10: huSP34.9.4 Fab-HF (Fab, V domains shown)
VH: EVQLVESGGGLVQPGGSLRLSCAASGFTFSDYAMNWVRQAPGKGLEWVGRTRSKYNSYATYYAASVKGRFTISRDDSKNSLYLQMNSLKTEDTAVYYCVRHGNFGNSYVSWFAVWGQGTLVTVSS
VL: QAVVTQEPSLTVSPGGTVTLTCGSSTGAVTTSHYANWVQQKPGQAPRGLIGGTSKRAPWTPARFSGSLLGGKAALTLSGAQPEDEAEYYCALWYSALWVFGGGTKLTVL
B11: huSP34.9.1 Fab-HF (Fab, V domains shown)
VH: EVQLVESGGGLVQPGGSLRLSCAASGFTFSDYAMNWVRQAPGKGLEWVGRTRSKYNSYATYYAASVKGRFTISRDDSKNSLYLQMNSLKTEDTAVYYCVRHGNFGNSYVSWFAVWGQGTLVTVSS
VL: QAVVTQEPSLTVSPGGTVTLTCRSSTGAVTTSNYANWVQQKPGQAPRGLIGGTNKRAPWTPARFSGSLIGDKAALTLSGAQPEDEAEYYCALWYSNLWVFGGGTKLTVL
B12: huSP34.6.5 Fab-HF (Fab, V domains shown)
VH: EVQLVESGGGLVQPGGSLRLSCAASGFTFSTYAMNWVRQAPGKGLEWVGRIRSKYNNYATYYADSVKGRFTISRDNSKNTLYLQMNSLRAEDTAMYYCVRHGNFGNSYVSWFAVWGQGTLVTVSS
VL: QAVVTQEPSLTVSPGGTVTLTCGSSTGAVTTGHYANWVQQKPGQAPRGLIGGTSNRAPWTPARFSGSLLGGKAALTLSGAQPEDEAEYYCALWYSARWVFGGGTKLTVL
B13: huSP34.6.1 Fab-HF (Fab, V domains shown)
VH: EVQLVESGGGLVQPGGSLRLSCAASGFTFSTYAMNWVRQAPGKGLEWVGRIRSKYNNYATYYADSVKGRFTISRDNSKNTLYLQMNSLRAEDTAMYYCVRHGNFGNSYVSWFAVWGQGTLVTVSS
VL: QAVVTQEPSLTVSPGGTVTLTCRSSTGAVTTSNYANWVQQKPGQAPRGLIGGTNKRAPWTPARFSGSLIGDKAALTLSGAQPEDEAEYYCALWYSNLWVFGGGTKLTVL
B14: huSP34.6.4 Fab-HF (Fab, V domains shown)
VH: EVQLVESGGGLVQPGGSLRLSCAASGFTFSTYAMNWVRQAPGKGLEWVGRIRSKYNNYATYYADSVKGRFTISRDNSKNTLYLQMNSLRAEDTAMYYCVRHGNFGNSYVSWFAVWGQGTLVTVSS
VL: QAVVTQEPSLTVSPGGTVTLTCGSSTGAVTTSHYANWVQQKPGQAPRGLIGGTSKRAPWTPARFSGSLLGGKAALTLSGAQPEDEAEYYCALWYSALWVFGGGTKLTVL
B15: huSP34.8.6 Fab-HF (Fab, V domains shown)
VH: EVQLVESGGGLVQPGGSLRLSCAASGFTFSDYAMNWVRQAPGKGLEWVGRTRSKYNNYATYYAASVKGRFTISRDDSKNSLYLQMNSLKTEDTAVYYCVRHGNFGHSYVSWFAVWGQGTLVTVSS
VL: QAVVTQPPSLTVSPGGTVTLTCGSSTGAVTTGHYANWVQQKPGQAPRGLIGGTSNRAPGVPARFSGSLSGGKAALTISGAQPEDEAEYYCALWYSARWVFGGGTKLTVL
B16: huSP34.7.1 Fab-HF (Fab, V domains shown)
VH: EVQLVESGGGLVQPGGSLRLSCAASGFTFSDYAMNWVRQAPGKGLEWVGRTRSKYNNYATYYAASVKGRFTISRDDSKNSLYLQMNSLKTEDTAVYYCVRHGNFGNSYVSWFAVWGQGTLVTVSS
VL: QAVVTQEPSLTVSPGGTVTLTCRSSTGAVTTSNYANWVQQKPGQAPRGLIGGTNKRAPWTPARFSGSLIGDKAALTLSGAQPEDEAEYYCALWYSNLWVFGGGTKLTVL
B17: huSP34.8.4 Fab-HF (Fab, V domains shown)
VH: EVQLVESGGGLVQPGGSLRLSCAASGFTFSDYAMNWVRQAPGKGLEWVGRTRSKYNNYATYYAASVKGRFTISRDDSKNSLYLQMNSLKTEDTAVYYCVRHGNFGHSYVSWFAVWGQGTLVTVSS
VL: QAVVTQEPSLTVSPGGTVTLTCGSSTGAVTTSHYANWVQQKPGQAPRGLIGGTSKRAPWTPARFSGSLLGGKAALTLSGAQPEDEAEYYCALWYSALWVFGGGTKLTVL
B18: huSP34.9.2 Fab-HF (Fab, V domains shown)
VH: EVQLVESGGGLVQPGGSLRLSCAASGFTFSDYAMNWVRQAPGKGLEWVGRTRSKYNSYATYYAASVKGRFTISRDDSKNSLYLQMNSLKTEDTAVYYCVRHGNFGNSYVSWFAVWGQGTLVTVSS
VL: QAVVTQEPSLTVSPGGTVTLTCGSSTGAVTTSNYANWVQQKPGQAPRGLIGGTSNRAPWTPARFSGSLLGGKAALTLSGAQPEDEAEYYCALWYSNLWVFGGGTKLTVL
B19: huSP34.8.1 Fab-HF (Fab, V domains shown)
VH: EVQLVESGGGLVQPGGSLRLSCAASGFTFSDYAMNWVRQAPGKGLEWVGRTRSKYNNYATYYAASVKGRFTISRDDSKNSLYLQMNSLKTEDTAVYYCVRHGNFGHSYVSWFAVWGQGTLVTVSS
VL: QAVVTQEPSLTVSPGGTVTLTCRSSTGAVTTSNYANWVQQKPGQAPRGLIGGTNKRAPWTPARFSGSLIGDKAALTLSGAQPEDEAEYYCALWYSNLWVFGGGTKLTVL

The first test concerns the target T1, biotinylated CD3 epsilon:delta heterodimer protein (Amsbio AMS.CDD-H52WO) (Homo sapiens (Human), UniProt P07766 23-126; P04234 22-105).
T1 construct: also called CD3 heterodimer
Description: BLI (Octet), CD3 on SA sensor, Fab analyte. (In general: In BLI a coated tip is dipped into the sample, and binding shifts an interference pattern.)
Description: (§1) The CD3 binding kinetics of the purified huSP34 Fabs were determined using OctetRed384 (Pall ForteBio, CA) biolayer interferometry (BLI). […] Streptavidin (SA) coated biosensors tips (Pall ForteBio, CA) were used to capture biotinylated CD3 epsilon: delta heterodimer and typical immobilization levels captured on the SA sensors were 1 nm which approximately translates to 300 ng/ml of captured protein. For kinetic measurements biosensors were first pre-wetted with assay buffer for 10 minutes to remove protective sucrose coating followed by the recommended regeneration conditions for standardization of the biosensor surface for the experiment. In order to load the biosensors with antigen, 300 ng/ml of biotinylated CD3 epsilon: delta heterodimer protein (Amsbio AMS.CDD-H52WO) was immobilized on the SA sensor for 900 seconds. The CD3 loaded biosensors were then blocked with 20 ug/ml biocytin (sigma) for 200 seconds and then dipped into assay buffer containing wells for 200 seconds to remove any non-specific protein or unbound CD3 heterodimer.
(§2) CD3 loaded and biocytin blocked biosensors were then transferred into fresh assay buffer for 200 seconds to collect a baseline read. Kinetic measurements for anti-CD3 Fab and bispecific antibody binding were performed by dipping the CD3-coated biosensors into wells containing multiple concentrations of Fab or Ab (0-300 nM) for 100 seconds followed by a 300 second dissociation time by transferring the biosensors into assay buffer containing wells. The CD3 loaded sensors were then regenerated for the next kinetic measurement. Biosensors were generated by removing bound Fabs or Ab from immobilized CD3 on SA biosensors. Regeneration conditions used consisted of 3 cycles of 5 seconds of dipping the biosensors in Regeneration Buffer (10 mM Glycine HCl pH 1.5) followed by Assay Buffer (10 mM sodium phosphate pH 7.4, 140 mM Sodium Chloride, 0.005% Tween20 with 0.2% BSA).
As for B1, the Kd was 5.2 nM, the koff came out at 0.00266 s⁻¹ and the kon was determined as 532000 M⁻¹ s⁻¹.

Take B2: the Kd came out at 4.4 nM, the koff came out at 0.00113 s⁻¹ and the association rate constant (kon) is 255000 M⁻¹ s⁻¹. Taken in the same sequence, the figures for B3 were 1.7 nM, 0.00204 s⁻¹ and 1.36e+06 M⁻¹ s⁻¹. The like results for B4 were, in that order, 2.7 nM, 0.00361 s⁻¹ and 1.38e+06 M⁻¹ s⁻¹. On to B5, for which the Kd is 2 nM, the koff is 0.00137 s⁻¹ and the kon was 683000 M⁻¹ s⁻¹.

For the next test, the target named is T2, CD3 expressed on cell-surface of primary human T cells (human, UniProt P07766 23-207; P04234 22-171).
T2 construct: also called cell-surface CD3; human CD3
The experiment in a line: flow cytometry competition vs murine SP34-AF488 on human T cells, n = 1.
Description: Binding of humanized SP34 Fab variants to CD3 expressed on cell-surface of primary human T cells was evaluated in a flow cytometry-based competition assay.
The molecule B6 had an IC50 of more than 20 mg/L. The molecule B7 yielded an IC50 of more than 20 mg/L.

B8 yielded an IC50 of more than 20 mg/L. The same measure, in the same setting: as for B9, the figure is more than 20 mg/L; as for B10, more than 20 mg/L; as for B11, more than 20 mg/L. On the same count and under the same terms, as for B12, the figure is more than 20 mg/L; as for B13, more than 20 mg/L.

In the case of B14, the IC50 was more than 20 mg/L. B15 returned an IC50 of more than 20 mg/L. With B16, the IC50 was more than 20 mg/L. On the same count and under the same terms, the result for B17 reads more than 20 mg/L; that for B18, more than 20 mg/L. The same measure, in the same setting: as for B19, the figure is more than 20 mg/L.

The target of the next test is T1, biotinylated CD3 epsilon:delta …. The experiment in a line: BLI (Octet), CD3 on SA sensor, Fab analyte. This is another data set of the same source.
Description: as §1, §2
Molecule B2 came in with a Kd of 1.9 nM, a koff of 0.00024 s⁻¹ and a kon of 131000 M⁻¹ s⁻¹. Consider B5, for which binding was characterised by a dissociation constant (Kd) of 2.3 nM, the koff was determined as 0.000235 s⁻¹ and the kon was 142000 M⁻¹ s⁻¹.

As a reminder, the Kd is the free concentration of one partner at which half of the binding sites on the other are occupied at equilibrium, for simple one-to-one binding. Read a low Kd as a tighter complex. A word on the koff: it is the rate constant with which the complex falls apart. A higher koff goes with fast dissociation. As a reminder, the kon is the rate constant with which the complex forms. A high value points to faster complex formation. One may read the IC50 as the concentration that inhibits the measured activity by half.

These data come from patent US20230056252A1 (Gilead, published 2023).
